In publication PMC9289625:

System: His:paALKBH5-like (Gypsy_Pa_2799 ORF2) (Phalaenopsis aphrodite)
Assay: EMSA
Conditions: EMSA: 10 mM Tris-HCl pH 8.0, 100 mM NaCl, 50% glycerol, 1 U RiboLock, 30 min at 4 C; Northwestern: 10 mM Tris-HCl pH 7.5, 1 mM EDTA, 0.1 M NaCl, 0.05% Triton …

In the case of AMV RNA 3 5'UTR transcript, the Kd is reported as 210 nM.
